This is an account of results in PMC5892705.

The target in this assay is human vasopressin V2 receptor (human), P30518.

For the molecule UYIQNUPLG (modifications not checked) [[Se-Se]-OT-OH], the cAMP production, EC50 worked out at 109 nM.
